Reference: article PMC4339880, “Enzymatic properties and subtle differences in the substrate specificity of phylogenetically distinct invertebrate N-glycan processing hexosaminidases” (Glycobiology, 2014)
Residue numbers refer to the chain shown, from its start.

T1: DmFDL (Drosophila melanogaster FDL) (Drosophila melanogaster, UniProt Q8WSF3, G400V)
T1 construct: soluble form without transmembrane domain, alpha-factor secretion signal, N-terminal His-tag, P. pastoris X-33 (codon-optimized; also made in Hi5 insect cells), Ni-NTA purified
T1 sequence (Q8WSF3 37-660 G400V limits assumed): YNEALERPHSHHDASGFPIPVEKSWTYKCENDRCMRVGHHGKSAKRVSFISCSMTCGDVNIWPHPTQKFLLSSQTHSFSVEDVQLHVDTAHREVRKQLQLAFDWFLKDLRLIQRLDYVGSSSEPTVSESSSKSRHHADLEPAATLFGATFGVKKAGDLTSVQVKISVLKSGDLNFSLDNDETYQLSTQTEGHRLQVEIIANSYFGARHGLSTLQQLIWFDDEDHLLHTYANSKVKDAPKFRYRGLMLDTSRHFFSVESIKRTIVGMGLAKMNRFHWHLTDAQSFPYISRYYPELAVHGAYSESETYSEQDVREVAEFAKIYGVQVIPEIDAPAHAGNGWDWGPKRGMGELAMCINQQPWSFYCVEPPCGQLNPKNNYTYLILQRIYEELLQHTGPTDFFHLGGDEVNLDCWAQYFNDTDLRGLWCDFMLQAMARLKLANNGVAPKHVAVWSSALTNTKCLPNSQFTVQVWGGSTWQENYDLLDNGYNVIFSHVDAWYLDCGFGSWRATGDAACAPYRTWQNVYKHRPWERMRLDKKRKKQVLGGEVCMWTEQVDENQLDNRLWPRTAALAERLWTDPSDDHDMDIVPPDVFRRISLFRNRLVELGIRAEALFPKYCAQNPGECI

T2: DmFDL (Drosophila melanogaster FDL) (Drosophila melanogaster, UniProt Q8WSF3, W506A)
T2 construct: soluble form without transmembrane domain, alpha-factor secretion signal, N-terminal His-tag, P. pastoris X-33 (codon-optimized; also made in Hi5 insect cells), Ni-NTA purified
T2 sequence (Q8WSF3 37-660 W506A limits assumed): T1 sequence (Q8WSF3 37-660 G400V limits assumed) with V364G, W470A

T3: CeHEX-4 (Caenorhabditis HEX-4) (Caenorhabditis elegans, UniProt Q8WTK2)
T3 sequence (Q8WTK2 25-491): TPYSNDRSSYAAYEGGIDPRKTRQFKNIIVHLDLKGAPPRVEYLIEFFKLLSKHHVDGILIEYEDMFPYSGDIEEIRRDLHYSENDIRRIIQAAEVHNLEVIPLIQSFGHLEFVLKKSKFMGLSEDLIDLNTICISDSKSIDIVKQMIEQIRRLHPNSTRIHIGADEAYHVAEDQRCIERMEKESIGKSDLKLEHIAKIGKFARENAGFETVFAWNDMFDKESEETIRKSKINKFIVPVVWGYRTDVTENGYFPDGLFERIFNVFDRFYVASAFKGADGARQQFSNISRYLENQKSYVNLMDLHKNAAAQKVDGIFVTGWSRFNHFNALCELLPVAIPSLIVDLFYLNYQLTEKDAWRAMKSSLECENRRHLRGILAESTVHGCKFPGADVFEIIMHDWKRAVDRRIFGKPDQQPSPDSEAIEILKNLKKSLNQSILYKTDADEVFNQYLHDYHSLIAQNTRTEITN

B1: CeHEX-2 (C. elegans HEX-2) (Caenorhabditis elegans) (protein)
chain: SYPKGGISQRALDSMQKEPQTPVLVQKRENFEESIDVAVEQESKKENPFVNQQASTENAKPITQEVKIERPSRDNEFYKNVVIHFDLKGAPPKVDYFLDLLRLIAKGGATGILLEWEDMFPWTGKLEQFKNTDAYSESDVDMILSEATKLKLDVIPLVQTFGHLEWILKYEEMRKYRENDAYPQVLCLGNEEGVEFVREMIRQVAKKHAKYGIPFFHIGADEAFEFGVCQESLDWIKKNGKNGRKQLLALAHLKAIAEFAKQQTGDSTQILAWHDMLKDFDSRLIKNLELGQIIQPVVWDYSENIITLNDYIFSALAENFPTMWASSAYKGANYPSASTSEVRHYETNNRNWIRTKQNQERKFKNGFQGIIVTGWQRYDHLAGLCETLPIGTASMMLQMQIALNAPALDLEGTRQKAATLLECQGFNVDGVKVVSNQCKYRGFQTYLIYQSEVPNLFARIDSELSKNHHLMGWANRYNRKYNISQNWYHREMLPFVQQLVGQYDRVESDLRASMKDLYFENTIDEFIYENLGEMSEKLHGYLEEIQRLDKLRAWPKRHFPIKK
notes: soluble form without transmembrane domain, alpha-factor secretion signal, C-terminal His-tag, P. pastoris X-33, Ni-NTA purified
B2: CeHEX-3 (C. elegans HEX-3) (Caenorhabditis elegans) (protein)
chain: TSQFKSTTTHARFVPEPSDPRLHPNSPLQAPKAQEPAAAETTKKPSRQPHHTTAKPRTENVEINGEKYPKLSPDGNLIPQRRIVHLDLKGAPYKPEFFTELFAFFNRIQATGILLEWEDMFPFKGRLRGAINKNAYSMETVEHILQEAQKHHLQIIPLVQTMGHLEWILKLEEFAHLREDTRFPQVICFSDENAWELIKEMIEEVANVHKKYGMSYFHIGADEAFQIGICNASITQIKKEFTRERLMLWHIARTARFVKEKYPETQVLAWHDMLASAMESDIEDYKLTELLQPVLWNYAEDLDIYLPRSTWMIVRNFRNVWGSSAWKGADGPARYSTNANHYLKNHESWIKQFTMVYKDFEVVEGLIMAGWSRYDHFAVLAETIPVALPTLAMSMETMIEGRPLAGNYPVTSELLQCTPPLDLGFTATGCKFPGNRIYELINEMYQKQMQLRTYRLDDYELNGWLSRVADDYSVSSHWYIDKIENMIEMHATPLEQLADDLRFEMERIFFKDTVDEFIFTYLGEDLEWFNRKRETIRKVSTSQTFPKRPFIESAKSEKTCT
B3: CeHEX-4 (Caenorhabditis HEX-4) (Caenorhabditis elegans) (protein)
chain: T3 sequence (Q8WTK2 25-491)
B4: DmFDL (Drosophila melanogaster FDL) (Drosophila melanogaster) (protein)
chain: T1 sequence (Q8WSF3 37-660 G400V limits assumed) with V364G
notes: soluble form without transmembrane domain, alpha-factor secretion signal, N-terminal His-tag, P. pastoris X-33 (codon-optimized; also made in Hi5 insect cells), Ni-NTA purified

Key:
[1] = biological target: T1, DmFDL (Drosophila melanogaster FDL); assay: p-nitrophenol release, A405; type: biochemical; details: 5 mM substrate, McIlvaine buffer, 30°C
[2] = biological target: T2, DmFDL (Drosophila melanogaster FDL); assay: p-nitrophenol release, A405; type: biochemical; details: 5 mM substrate, McIlvaine buffer, 30°C
[3] = biological target: T3, CeHEX-4 (Caenorhabditis HEX-4); assay: inhibition of pNP-β-GalNAc hydrolysis (A405), Cheng-Prusoff from IC50; Dixon plot; type: biochemical; details: substrate pNP-β-GalNAc, McIlvaine buffer, 37°C
[4] = substrate: CC(=O)N[C@H]1[C@H](Oc2ccc([N+](=O)[O-])cc2)O[C@H](CO)[C@@H](O)[C@@H]1O; assay: p-nitrophenol release, A405, non-linear fit; type: biochemical, Caenorhabditis elegans; details: McIlvaine buffer at optimal pH (5-6), 37°C
[5] = substrate: CC(=O)N[C@H]1[C@H](Oc2ccc([N+](=O)[O-])cc2)O[C@H](CO)[C@H](O)[C@@H]1O; assay: p-nitrophenol release, A405, non-linear fit; type: biochemical, Caenorhabditis elegans; details: McIlvaine buffer at optimal pH (5-6), 37°C
[6] = substrate: CC(=O)N[C@H]1[C@H](Oc2ccc([N+](=O)[O-])cc2)O[C@H](CO)[C@@H](O)[C@@H]1O; assay: purified protein, by the assay type; parameters: p-nitrophenol release from pNP-glycoside substrate, A405, non-linear Michaelis-Menten fit
Protocol: (§1) Determination of Km, specific activity, kcat and Ki Standard enzymatic activity assays were performed using pNP-β-GlcNAc (Sigma, USA) and pNP-β-GalNAc (Sigma, USA) as a substrate. The assays were performed at a substrate concentration of 5 mM in McIlvaine buffer, pH 4.0–6.0 at 30°C for Drosophila FDL and at 37°C for the other hexosaminidases. The total reaction volume was 40 µL and incubation time was 2 h. All purified enzymes were tested for additional activities using a range of p-nitrophenyl-sugars as substrates at a concentration of 5 mM for 4 h. After the addition of 200 µL of 0.4 M glycine/NaOH pH 10.4, A405nm was determined on a Tecan Infinite M200 microtiter plate reader (Tecan, Austria). All enzymes were appropriately diluted for measurements in order to measure reactions within the linear range of the assay. Enzyme units are given in µmol product (nitrophenol) per minute.

[7] = substrate: CC(=O)N[C@H]1[C@H](Oc2ccc([N+](=O)[O-])cc2)O[C@H](CO)[C@H](O)[C@@H]1O; assay: purified protein, by the assay type; parameters: p-nitrophenol release from pNP-glycoside substrate, A405, non-linear Michaelis-Menten fit
Protocol: as §1

Row | Molecule | Km [4] | kcat [4] | kcat/Km [4] | Km [5] | kcat [5] | kcat/Km [5] | further results
1 | CC(=O)N[C@H]1[C@H](Oc2ccc([N+](=O)[O-])cc2)O[C@H](CO)[C@H](O)[C@@H]1O [pNP-β-GalNAc, p-nitrophenyl-β-D-N-acetylgalactosaminide] | – | – | – | – | – | – | p-nitrophenol release, A405 [1]: the Drosophila G400V mutant showed increased; p-nitrophenol release, A405 [2]: the W506A mutant showed decreased activity toward pNP-β-GalNAc
2 | CC(=O)N[C@H]1C(O)O[C@H](CO)[C@H](O)[C@@H]1O (stereo partly shown) [GalNAc, N-acetylgalactosamine] | – | – | – | – | – | – | Ki [3]: 1 mM
3 | B1 | 0.23 ± 0.15 mM | 8.6 ± 0.8 s⁻¹ | 22000 ± 3600 M⁻¹ s⁻¹ | 0.41 ± 0.08 mM | – | – | –
4 | B2 | 0.97 ± 0.70 mM | 0.1 s⁻¹ | 200 ± 100 M⁻¹ s⁻¹ | 0.59 ± 0.14 mM | 5.2 ± 1 s⁻¹ | 7800 ± 3000 M⁻¹ s⁻¹ | –
5 | B3 | 3.47 ± 0.35 mM | 12.6 ± 1.4 s⁻¹ | 2200 ± 100 M⁻¹ s⁻¹ | 0.59 ± 0.05 mM | 13.8 ± 1.4 s⁻¹ | 19500 ± 2300 M⁻¹ s⁻¹ | –
6 | B4 | – | – | – | – | – | – | Km [6]: 1.40 ± 0.08 mM; kcat [6]: 48.2 ± 2.2 s⁻¹; kcat/Km [6]: 42000 ± 1800 M⁻¹ s⁻¹; Km [7]: 0.52 ± 0.03 mM; kcat [7]: 5.6 ± 0.1 s⁻¹; kcat/Km [7]: 11900 ± 800 M⁻¹ s⁻¹
